Experiment [1] has as its target Recombinant human DSG2 protein (desmoglein 2), soluble (human) (UniProt Q14126). Put plainly: method not named at this place; presumably the SPR of FIG. 7 (noDD forms).
Experiment [2] addresses T1, Desmoglein 2 (DSG2) on cells (human, UniProt Q14126 50-1118).
T1 sequence (looked up): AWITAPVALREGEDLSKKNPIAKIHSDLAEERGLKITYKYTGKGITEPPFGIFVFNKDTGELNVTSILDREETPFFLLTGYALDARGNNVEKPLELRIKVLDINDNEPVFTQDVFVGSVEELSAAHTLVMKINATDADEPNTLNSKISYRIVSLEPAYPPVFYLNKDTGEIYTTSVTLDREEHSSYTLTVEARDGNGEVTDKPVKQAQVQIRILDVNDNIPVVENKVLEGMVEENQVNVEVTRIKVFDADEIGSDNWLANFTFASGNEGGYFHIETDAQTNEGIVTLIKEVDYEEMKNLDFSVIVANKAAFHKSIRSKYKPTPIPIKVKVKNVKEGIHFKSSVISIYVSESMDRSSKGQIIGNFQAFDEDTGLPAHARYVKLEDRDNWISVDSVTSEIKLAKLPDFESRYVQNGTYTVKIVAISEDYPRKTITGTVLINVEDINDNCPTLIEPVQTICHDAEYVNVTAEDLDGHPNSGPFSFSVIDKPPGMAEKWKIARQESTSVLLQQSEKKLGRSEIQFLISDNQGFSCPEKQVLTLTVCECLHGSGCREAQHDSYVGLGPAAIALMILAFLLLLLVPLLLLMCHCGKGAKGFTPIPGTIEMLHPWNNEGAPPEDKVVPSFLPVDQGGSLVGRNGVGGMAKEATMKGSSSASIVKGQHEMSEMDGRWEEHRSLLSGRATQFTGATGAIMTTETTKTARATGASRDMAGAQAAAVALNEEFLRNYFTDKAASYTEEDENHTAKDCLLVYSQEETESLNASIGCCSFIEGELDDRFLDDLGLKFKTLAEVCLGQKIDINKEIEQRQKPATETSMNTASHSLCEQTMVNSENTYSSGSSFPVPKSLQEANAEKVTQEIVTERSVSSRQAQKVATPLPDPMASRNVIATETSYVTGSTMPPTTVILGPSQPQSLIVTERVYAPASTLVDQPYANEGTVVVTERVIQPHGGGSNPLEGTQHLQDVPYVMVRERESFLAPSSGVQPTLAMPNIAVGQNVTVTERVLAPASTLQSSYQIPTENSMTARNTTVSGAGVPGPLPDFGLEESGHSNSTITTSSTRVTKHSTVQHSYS
Put plainly: cell-based or functional assay.

The target of experiment [3] is Recombinant human DSG2 protein (desmoglein 2), soluble (human) (UniProt Q14126). As to the kind of experiment: Western blot of purified dimeric knob (trimer band) probed with soluble recombinant DSG2, anti-DSG2 mAb and anti-mouse IgG-HRP; bands quantified. Background: A western blot detects proteins with antibodies after separation by electrophoresis.
In experiment [4] the target is T1, Desmoglein 2 (DSG2) on cells. Put plainly: competition: attachment of 3H-labelled Ad3 virus (competitor) to HeLa cells after pre-incubation with dimeric knob; scintillation counting.

As a reminder, the Kd is the free concentration of one partner at which half of the binding sites on the other are occupied at equilibrium, for simple one-to-one binding. In the case of “JO-4 (dimeric affinity-enhanced Ad3 fiber knob mutant Y250F) (ligand)”, the equilibrium dissociation constant (Kd) in experiment [1] stood at 11.4 nM.

B1: dimeric Ad3 fiber knob mutant N186D, D261N (ligand)
chain: MKVSALKEKVSALKEKVSALKEKVSALKEKVSALKEGSGGGSGGGSGGGSNSIALKNNTLWTGPKPEANCIIEYGKQNPDSKLTLILVKNGGIVNGYVTLMGASDYVNTLFKDKNVSINVELYFDATGHILPDSSSLKTDLELKYKQTADFSARGFMPSTTAYPFVLPNAGTHNENYIFGQCYYKASNGALFPLEVTVMLNKRLPDSRTSYVMTFLWSLNAGLAPETTQATLITSPFTFSYIREDD
notes: JO-1 format; Positions count on the full Ad3 fiber; also called combination of N186D and D261N
Regarding B1, in experiment [2], the “Inhibition of infection in the presence of dimeric knob (JO-1 = 100%)” value is 5.2 % (JO-1 = 100%). For the same molecule, the Western blot Residual DSG2 binding (wtAd3 knob = 100%) in experiment [3] amounted to 7%. Also, the “Inhibition of attachment in the presence of dimeric knob (JO-1 = 100%)” value in experiment [4] was 23.5 % (JO-1 = 100%).

Values taken from patent US20190092819A1 (published 2019).
